Data reported in publication PMC7219890 (2020).
Each block holds one binder with its values, some of them ahead of it.

Biological target: T1, Mical-1 (Homo sapiens, UniProt Q8TDZ2)
T1 chain: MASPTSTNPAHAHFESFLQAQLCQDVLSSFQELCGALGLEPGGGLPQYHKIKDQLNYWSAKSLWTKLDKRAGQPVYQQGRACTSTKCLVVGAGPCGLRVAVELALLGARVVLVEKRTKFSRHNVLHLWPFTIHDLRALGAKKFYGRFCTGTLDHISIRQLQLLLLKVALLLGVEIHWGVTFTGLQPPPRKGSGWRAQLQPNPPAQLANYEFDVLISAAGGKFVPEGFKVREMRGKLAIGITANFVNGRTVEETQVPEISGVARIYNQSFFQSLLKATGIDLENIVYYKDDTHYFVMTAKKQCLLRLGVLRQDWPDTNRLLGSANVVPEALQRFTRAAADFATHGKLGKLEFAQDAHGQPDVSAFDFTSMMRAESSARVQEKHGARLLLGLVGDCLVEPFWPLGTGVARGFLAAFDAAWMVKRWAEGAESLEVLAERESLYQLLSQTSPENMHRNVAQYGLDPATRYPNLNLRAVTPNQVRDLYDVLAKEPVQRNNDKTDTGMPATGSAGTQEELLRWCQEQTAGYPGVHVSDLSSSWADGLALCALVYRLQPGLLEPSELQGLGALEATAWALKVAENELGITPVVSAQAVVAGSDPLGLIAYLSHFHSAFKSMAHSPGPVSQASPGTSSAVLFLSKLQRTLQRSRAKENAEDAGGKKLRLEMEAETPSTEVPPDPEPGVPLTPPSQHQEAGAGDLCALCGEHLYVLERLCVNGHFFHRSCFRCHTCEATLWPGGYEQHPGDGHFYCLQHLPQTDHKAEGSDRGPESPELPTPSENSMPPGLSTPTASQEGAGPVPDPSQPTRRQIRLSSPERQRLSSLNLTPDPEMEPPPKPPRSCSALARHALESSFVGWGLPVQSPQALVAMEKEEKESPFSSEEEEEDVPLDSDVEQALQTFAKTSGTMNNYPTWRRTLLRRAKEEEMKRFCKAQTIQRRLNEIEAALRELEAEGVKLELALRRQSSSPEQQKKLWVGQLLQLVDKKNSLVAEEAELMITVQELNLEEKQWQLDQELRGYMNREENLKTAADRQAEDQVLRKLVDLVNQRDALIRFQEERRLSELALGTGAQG
Assay: ITC

Kd: 923 nM
B1: Rab8A 6-176 (protein)
chain: DYLFKLLLIGDSGVGKTCVLFRFSEDAFNSTFISTIGIDFKIRTIELDGKRIKLQIWDTAGQERFRTITTAYYRGAMGIMLVYDITNEKSFDNIRNWIRNIEEHASADVEKMILGNKCDVNDKRQVSKERGEKLALDYGIKFMETSAKANINVENAFFTLARDIKAKMDKK
modifications: GppNHp-bound, C-terminal His6 tag on Rab8A

Kd: 913 nM
B2: Rab8A 6-176 (protein)
chain: B1 chain
modifications: phosphoSer111 Rab8A, GppNHp-bound, C-terminal His6 tag on Rab8A
